Values quoted from earlier work in publication PMC2656815.

Target: CRF1 receptor N-domain (Homo sapiens) (UniProt P34998)
Chain of UniProt P34998 (P34998 24-119): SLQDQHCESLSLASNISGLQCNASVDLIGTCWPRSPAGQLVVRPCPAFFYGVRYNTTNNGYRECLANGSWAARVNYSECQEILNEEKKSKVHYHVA

Kd: 50 nM
Substance: CRF (from UniProt P06850)
